What was measured:
turbidity = settings: other: turbidity (light scattering at 340 nm) of cell-free assembly
P04590 = assay: turbidity; settings: other: turbidity (light scattering at 340 nm) of cell-free assembly

| Substance | fold lower turbidity (A340 nm) at 120 min than WT (turbidity) | normalized A340 nm (turbidity) (turbidity) | other results |
| --- | --- | --- | --- |
| HIV-2 CA-NC protein (Gag amino acids 136-431), CA A41D mutant | 25-fold (A41D) lower than that of WT |  | normalized A340 nm (turbidity), whole time course (turbidity): low turbidity readings (i.e., < 0.36) |
| HIV-2 CA-NC protein (Gag amino acids 136-431), CA G38M mutant | 7.0-fold (i.e., G38M, N127E, I152A) | 0.34 |  |
| HIV-2 CA-NC protein (Gag amino acids 136-431), CA I152A mutant | 7.0-fold (i.e., G38M, N127E, I152A) | 0.65 |  |
| HIV-2 CA-NC protein (Gag amino acids 136-431), CA L19A mutant |  | 1.77 |  |
| HIV-2 CA-NC protein (Gag amino acids 136-431), CA N127E mutant | 7.0-fold (i.e., G38M, N127E, I152A) |  |  |
| HIV-2 CA-NC protein (Gag amino acids 136-431), wild type |  |  | normalized A340 nm (turbidity), peak at 20 min (P04590): peaked at 20 min (i.e., 1.27); normalized A340 nm (turbidity), stable value after the peak (P04590): remained stable (i.e., 0.56) |
